Experimental data reported in patent US20110236325A1, “METHODS TO TREAT OR PREVENT A SKIN CONDITION USING A NELL1 PEPTIDE” (NellOne Therapeutics, Inc., priority 2010, published 2011).

What was measured:
[1] = system: EFT-400 tissues; assay: Gene expression by quantitative PCR custom array in EFT-400 tissues with or without UV irradiation; details: for AVG Ct ACTB (housekeeping gene) / AVG Ct AQP3 / AVG Ct BCL2L1 / AVG Ct COL1A1 / AVG Ct COL4A2 / AVG Ct COL5A1 / AVG Ct COL6A1 / AVG Ct COL6A2 / AVG Ct COL7A1 / AVG Ct COL8A1 / AVG Ct COL11A1 / AVG Ct COL12A1 / AVG Ct COL14A1 / AVG Ct COL15A1 / AVG Ct COL16A1 / AVG Ct DSG1 / AVG Ct ERCC1 / AVG Ct FN1 / AVG Ct GAPDH (housekeeping gene) / AVG Ct GDF15 / AVG Ct GSTM3 / AVG Ct HSPA8 / AVG Ct IL1A / AVG Ct IL1B / AVG Ct IL8 / AVG Ct KAL1 / AVG Ct KRT16 / AVG Ct LAMA1 / AVG Ct LAMA2 / AVG Ct LAMA3 / AVG Ct LAMA5 / AVG Ct LAMB1 / AVG Ct LAMB3 / AVG Ct LAMC1 / AVG Ct MMP1 / AVG Ct MMP2 / AVG Ct MT2A / AVG Ct PCNA / AVG Ct RPL13A (housekeeping gene) / AVG Ct SIRT1 / AVG Ct TGFBI / AVG Ct THBS3 / AVG Ct TNC / AVG Ct VTN: UVB + UVA
Procedure: EpiDerm-FT™ (EFT-400) tissues were produced and packaged in the MatTek Corporation GMP tissue culture production laboratories following standard procedures. Packaged tissues were stored at 4° C. overnight and then re-equilibrated in EFT-400-ASY medium overnight prior to the start of experiments. The sample size was n=3 for each treatment group in the gene expression experiments; and n=6 (two independent experiments of n=3) for the sunburned cell counts.
Total RNA was isolated from the EFT-400 tissues (RNAqueous kit, Ambion) (n=3) and utilized for gene expression analysis by quantitative PCR on an SABioscience custom array containing 42 Human Extracellular Matrix (ECM) and Adhesion Molecules RT^2 Profiler™ PCR Array, stress and toxicity genes whose expression, based on MatTek data, are known to be dramatically altered by UV-protective compounds on UV damaged skin. […] Further, there were three internal control spots on the array that corresponded to human genomic DNA contamination (HGDC), positive PCR control (PPC), and reverse transcription control (RTC).

[2] = system: EFT-400 tissues; assay: Sunburned cell counts in UV-irradiated EpiDerm-FT (EFT-400) skin model tissues, H&E histology; assay type: cell-based, human; details: for sunburned cell formation: 200 mJ/cm2 UVB/29.94 mW/cm2 UVA, 24 hour post irradiation
Procedure: Packaged tissues were stored at 4° C. overnight and then re-equilibrated in EFT-400-ASY medium overnight prior to the start of experiments. The sample size was n=3 for each treatment group in the gene expression experiments; and n=6 (two independent experiments of n=3) for the sunburned cell counts.
Treated and untreated tissues were exposed to UV irradiation with 200 mJ/cm^2UVB/29.94 mW/cm^2UVA simulated solar UV light (Honle-500 solar lamp).
At the conclusion of the 24 hour post-irradiation period, EFT-400 tissues were fixed in 10% formalin for 2 hours at room temperature (two independent experiments with n=3). Formalin fixed tissues were embedded in paraffin and 6 micron slices were stained with haematoxylin and eosin (H&E).

B1: Nell 1: Full-length human recombinant NELL1 protein (isoform 1, SEQ ID NO: 2), expressed in a wheat germ cell-free translation system, obtained from Abnova (protein, listed as Homo sapiens)
chain: MPMDLILVVWFCVCTARTVVGFGMDPDLQMDIVTELDLVNTTLGVAQVSGMHNASKAFLFQDIEREIHAAPHVSEKLIQLFRNKSEFTILATVQQKPSTSGVILSIRELEHSYFELESSGLRDEIRYHYIHNGKPRTEALPYRMADGQWHKVALSVSASHLLLHVDCNRIYERVIDPPDTNLPPGINLWLGQRNQKHGLFKGIIQDGKIIFMPNGYITQCPNLNHTCPTCSDFLSLVQGIMDLQELLAKMTAKLNYAETRLSQLENCHCEKTCQVSGLLYRDQDSWVDGDHCRNCTCKSGAVECRRMSCPPLNCSPDSLPVHIAGQCCKVCRPKCIYGGKVLAEGQRILTKSCRECRGGVLVKITEMCPPLNCSEKDHILPENQCCRVCRGHNFCAEGPKCGENSECKNWNTKATCECKSGYISVQGDSAYCEDIDECAAKMHYCHANTVCVNLPGLYRCDCVPGYIRVDDFSCTEHDECGSGQHNCDENAICTNTVQGHSCTCKPGYVGNGTICRAFCEEGCRYGGTCVAPNKCVCPSGFTGSHCEKDIDECSEGIIECHNHSRCVNLPGWYHCECRSGFHDDGTYSLSGESCIDIDECALRTHTCWNDSACINLAGGFDCLCPSGPSCSGDCPHEGGLKHNGQVWTLKEDRCSVCSCKDGKIFCRRTACDCQNPSADLFCCPECDTRVTSQCLDQNGHKLYRSGDNWTHSCQQCRCLEGEVDCWPLTCPNLSCEYTAILEGECCPRCVSDPCLADNITYDIRKTCLDSYGVSRLSGSVWTMAGSPCTTCKCKNGRVCCSVDFECLQNN
[1]; UV-irradiated, 100 ng/ml
  significance of further increase of AQP3 RNA after UV exposure: highly significant
[1]; UV-irradiated, 150 ng/ml
  UV-elevated levels of AQP3: did not have the same effect
  UV-induced increase in IL-1β RNA level: did not
  UV-induced increase in IL-8 RNA level: did not
  UV-induced increase in MMP-1 RNA level: did not
[1]; 100 ng/ml Nell 1
  AVG Ct ACTB (housekeeping gene): 17.67
  AVG Ct AQP3: 21.13
  AVG Ct BCL2L1: 23.22
  AVG Ct COL1A1: 18.36
  AVG Ct COL4A2: 21.55
  AVG Ct COL5A1: 22.98
  AVG Ct COL6A1: 19.15
  AVG Ct COL6A2: 19.19
  AVG Ct COL7A1: 24.38
  AVG Ct COL8A1: 26.96
  AVG Ct COL11A1: 26.86
  AVG Ct COL12A1: 23.95
  AVG Ct COL14A1: 25.64
  AVG Ct COL15A1: 25.01
  AVG Ct COL16A1: 23.42
  AVG Ct DSG1: 20.06
  AVG Ct ERCC1: 23.26
  AVG Ct FN1: 19.79
  AVG Ct GAPDH (housekeeping gene): 18.15
  AVG Ct GDF15: 22.21
  AVG Ct GSTM3: 29.13
  AVG Ct HSPA8: 19.74
  AVG Ct IL1A: 24.03
  AVG Ct IL1B: 26.48
  AVG Ct IL8: 17.72
  AVG Ct KAL1: 31.65
  AVG Ct KRT16: 16.35
  AVG Ct LAMA1: 28.16
  AVG Ct LAMA2: 25.03
  AVG Ct LAMA3: 22.41
  AVG Ct LAMA5: 26.3
  AVG Ct LAMB1: 22.34
  AVG Ct LAMB3: 23.78
  AVG Ct LAMC1: 22.72
  AVG Ct MMP1: 17.91
  AVG Ct MMP2: 18.77
  AVG Ct MT2A: 16.81
  AVG Ct PCNA: 23.31
  AVG Ct RPL13A (housekeeping gene): 20.55
  AVG Ct SIRT1: 26
  AVG Ct TGFBI: 21.97
  AVG Ct THBS3: 28.28
  AVG Ct TNC: 20.22
  AVG Ct VTN: 31.83
[1]; 150 ng/ml Nell 1
  AVG Ct ACTB (housekeeping gene): 17.99
  AVG Ct AQP3: 21.71
  AVG Ct BCL2L1: 23.45
  AVG Ct COL1A1: 18.78
  AVG Ct COL4A2: 21.59
  AVG Ct COL5A1: 23.33
  AVG Ct COL6A1: 19.34
  AVG Ct COL6A2: 19.56
  AVG Ct COL7A1: 25.28
  AVG Ct COL8A1: 27.46
  AVG Ct COL11A1: 27.23
  AVG Ct COL12A1: 24.22
  AVG Ct COL14A1: 25.86
  AVG Ct COL15A1: 25.2
  AVG Ct COL16A1: 23.71
  AVG Ct DSG1: 20.21
  AVG Ct ERCC1: 23.41
  AVG Ct FN1: 20.13
  AVG Ct GAPDH (housekeeping gene): 18.08
  AVG Ct GDF15: 21.87
  AVG Ct GSTM3: 29.32
  AVG Ct HSPA8: 20.04
  AVG Ct IL1A: 23.99
  AVG Ct IL1B: 25.98
  AVG Ct IL8: 17.08
  AVG Ct KAL1: 32.24
  AVG Ct KRT16: 16.47
  AVG Ct LAMA1: 28.02
  AVG Ct LAMA2: 25.17
  AVG Ct LAMA3: 22.96
  AVG Ct LAMA5: 27.06
  AVG Ct LAMB1: 22.48
  AVG Ct LAMB3: 24.32
  AVG Ct LAMC1: 22.88
  AVG Ct MMP1: 17.75
  AVG Ct MMP2: 18.67
  AVG Ct MT2A: 16.56
  AVG Ct PCNA: 23.58
  AVG Ct RPL13A (housekeeping gene): 20.64
  AVG Ct SIRT1: 26.02
  AVG Ct TGFBI: 21.91
  AVG Ct THBS3: 28.7
  AVG Ct TNC: 20.2
  AVG Ct VTN: 32.41
[1]; no UV
  gene expression in the absence of UV irradiation: some decreases in gene expression
[2]; 100 ng/ml
  sunburned cell formation: decrease in sunburned cell formation
[2]; 150 ng/ml
  sunburned cell formation: did not decrease sunburned cell formation to the same extent as 100 ng/ml NELL1
[2]; pre-treatment 30 minutes prior to UV, continued 24 hours post-irradiation
  number of sunburned cells as compared to UV-only controls: statistically significant reduction in the number of sunburned cells
